Experimental data from the DeepSol protein solubility set.

Assay: soluble on expression in E. coli; label from the status in PepcDB or PDB records

Soluble on expression in E. coli, soluble:
MGNRLKAARSPYLLAHAEDPVDWYPFGEEAFRKAQAEDKPIFLSVGYASCHWCHVMHRESFQDEEVARLLNAHFVPVKVDREERPDVDAAYMRALVSLTGQGGWPMSLFLTPEGKPFFGGTYFPKEDRMGLPGFKRVLVAVAEAWAGKREAILEEAERLTRALWKSLSPPPGPLPEGAEEEALDHLERAFDPEWGGFLPAPKFPQGPLLLYLLARAWEGEERAARLLRPTLRAMALGGVYDQVGGGFHRYSVDRFWRLPHFEKMLYDNALLARVYLGAYKLFGEDLFLRVARETLDWLLSMQRREGGFHTALDAESEGEEGRYYTWTEAELREALGEDFPLARRYFALGEDLGERSVLTAWGEAEARKALGEGFFAWREGVRAKLQGARRRRMPPALDDKVLADWSALAVRALAEAGRLFGEERYLEAAKRGARFLLAHMYREGLLRHTWRGSLGEEAYLSDQAFAALAFLELYAATGEWPYLDWAQRLAEAGWRLFREGPSLPLPAKEVEEGALPSGESALAEALVRLGAVFGGDYRERAEEVLAEKARWLARYPHALPGALLAKALWERGTELALPLPSPLLEAARGAFLPLTQLVLGPAGALPALEGREAGKAYVCRRGVCLLPVDRWEEVEARVRGDD, TELTKCKVSHAIKDIDGYQGISLLEWACVLFHTSGYDTQAVVNDNGSTEYGLFQISDRFWCKSSEFPESENICGISCDKLLDDELDDDIACAKKILAIKGIDYWKAYKPMCSEKLEQWRCEKP, TAPSQVLKIRRPDDWHLHLRDGDMLKTVVPYTSEIYGRAIVMPNLAPPVTTVEAAVAYRQRILDAVPAGHDFTPLMTCYLTDSLDPNELERGFNEGVFTAAKLYPANAVTNSSHGVTSVDAIMPVLERMEKIGMPLLVHGEVTHADIDIFDREARFIESVMEPLRQRLTALKVVFEHITTKDAADYVRDGNERLAATITPQHLMFNRNHMLVGGVRPHLYCLPILKRNIHQQALRELVASGFNRVFLGTDSAPHARHRKESSCGCAGCFNAPTALGSYATVFEEMNALQHFEAFCSVNGPQFYGLPVNDTFIELVREEQQVAESIALTDDTLVPFLAGETVRWSVKQ, MVFEEFISTELKKEKKAFTEEFKEEKEINDNSNLKNDLLKEELQEKARIAELESRILKLELEKKELERENLQLMKENEILRRELDRMRVPPLIVGTVVDKVGERKVVVKSSTGPSFLVNVSHFVNPDDLAPGKRVCLNQQTLTVVDVLPENKDYRAKAMEVDERPNVRYEDIGGLEKQMQEIREVVELPLKHPELFEKVGIEPPKGILLYGPPGTGKTLLAKAVATETNATFIRVVGSELVKKFIGEGASLVKDIFKLAKEKAPSIIFIDEIDAIAAKRTDALTGGDREVQRTLMQLLAEMDGFDARGDVKIIGATNRPDILDPAILRPGRFDRIIEVPAPDEKGRLEILKIHTRKMNLAEDVNLEEIAKMTEGCVGAELKAICTEAGMNAIRELRDYVTMDDFRKAVEKIMEKKKVKVKEPAHLDVLYR, MAHHHHHHMEYQGSPQQEEGDAALAKRLHEELNRSEASGHQEPSDQTGGRRQVECPMCSSVSVVVGAADGVQQVCERCKATTHGGFASGEDNENYSMQKLLLCNICQSYNRVPKGTFDAILCGACGNQLKAGGSVTENLSPEDTRVRTQEIRVRCPKCSSINTVEANTDALSVRFECGSCRYANEVFF

Soluble on expression in E. coli, not soluble:
MNILQFNVRLAEGGAAGVALDLHLRALQKGLTSHFVYGYGKGGKKSVSHHRYPQVIKQTPRGTAIANIALFRFLNRDLFGNLDNLYRTVIQTSGPLVLHFHVLHSYWLNLADIVTFCEKVKAQKPDVTLVWTLHDHWSVTGRCAFTDGCEGWKSGCQKCPTLSNYPPVRVDRAHQLIDGKRQRFRDMLRLGCRFISPSQHVAEAFNSVYGAGRCQIINNGIDLATEAILAQLSPVPLNPGKPRIAIVAHDLRYDGKTDQRLVHDMMALGEKIELHTFGKFSPFTGQNVVNHGFETDKRKLMSALNEMDALVFSSRVDNYPLILCEALSIGVPVIATHSEAAQEVLAKSGGQTFAATDVLRLAQRRKPEIAQAVFGATLDAFRMRSRVAYSGQQMLEEYVSFYQNLLEHHHHHH, MGSDKIHHHHHHMAKTPANKNDQTKDGRFEEALWDAANKLRGSVESSEYKHIVLSLIFLKFISDTFEQQRQKLIDTGYEKHIDMVQAYTKDNVFYLPAESRWSFIQQNAKQEDIALKIDTALSTIEKTNQSLKGALPDNYFSRLGLTASKLAALIDVVNNIDTIGNPEEDTVGRVYEYFLGKFAATEGKGGGEFYTPKSVVNLIAEMVEPYQGKIYDPCCGSGGMFVQSIKFIESHHGNTKDVSIYGQEYTSTTYKLAKMNLAIRGISSNLGDVAADTFFKDQHEDLKADFIMANPPFNQKDWRASDELVDDPRWAGYPTPPTGNANYAWILHMISKLSEHGTAGFVLANGSMSTTTSGEGEIRQQIIENDLVDCMIALPGQLFYTTQIPVCLWFINKDKQAKSADSKARGLRNRSGETLFIDARAIGSMISRTNKELTKDDIEAIAKTYHAWRGEKEAGGYEAYTDEAGYCKSATLDDMKANDYVLTPGRYVGAAAIEDDGISFETKMLELSQTLYAQMQASEKLDATIRQNLEVLGYGE, CIAGHSRGGLIALIAAALKGKWAIAVSAPSDRRKQKEYLSKFPPGTVQYNIYQDLMKMPEYELEYSSLSYADRLKKVLLIHGEDDEMVLKEHSITLCDTIKRMGGDCELHIIPKMKHTPLGQQYQTIWSIIEDWIKRNS, MAHHHHHHMALEIDIDNVISKLIEVRGTRPGKNVNLTENEIKILCLSSREIFLNQPILLELEAPIKICGDIHGQFYDLLRLFEYGGFPPDANYLFLGDYVDRGKQSLETICLLLAYKIKYPENFFLLRGNHECASINRIYGFYDECKRRYSVKLWKTFIDCFNCLPVAAIIDEKIFCMHGGLSPELNNMEQIRKITRPTDVPDNGLLCDLLWSDPEKEINGWGENDRGVSFTFGQDVVHNFLRKHELDLICRAHQVVEDGYEFFAKRQLVTLFSAPNYCGEFDNAGAMMSVDETLMCSFQILKPVEKKKAAN, PNEKFCFEGFLPQKKGRMTKLKSLVDEHRTMVFYESPHRLLKTLTQFAEYFGPERQVSVSREISKIHEETVRGTLSELIEHFTATDPRGEIVIVLAGIDD, MGSDKIHHHHHHLNVYHASLEEAQADPRLKGLQGASPFERLDWLALLANECLDPARARLSVVTSGECMAALPWIEREGRIDALANWYSFFVSPLGDSALLSRIVEALPHGRAAFAPLPEEDARLLARAFRNAGWCTLAAPCDVNHVLPVEGRSFAQYWAERPGALRETVRRKSRKGEVSLRILTEFSPEDWEAYETIYRLSWKPGEGSPAFLRKWAEADGEAGRLRLGIAEIDGAAVAAQFWTVEGGTAYIHKLAHDERFRKSSPGTLLTAAMFEHVIDRDRVDLIDFGTGDDPYKRDWMDDVRSRWSVQAWRPGAVRHWPSLALALARTLAGQIMRPLVSRNGDG, MNLDLTAQKVRLSWKDILWGYGNKYLGWADVAAYARKMTLSDHDERVFKLSLINKSNILELKPVLEDLASEMRDYSPKNWLYVLLSDVFHRKEEFEDPLGEVEKIYADFDYPEEIESFVRYMPPKDGYIPSAHTYEENIARLYSHWEHYLNNGGGQG, MGHHHHHHSHMLRILKKDCALTGGEVTLANQTKIFYVIKAPSLCSLVGSPSSDSVTSQELFKTFPCETPLSMPLVSTSNPLLSIVRLMVSPKPYDLTGVLCFGEDHETHYILRRVAKILTMTQEELDTICDIELHFSSNETLSSNRVPSRLTESIFPGLVPTVHFPQNMILSRGFFTGGNGPIIKHVAQTHHLTSDFVARVFYALKTPQAHAPGAAQLYRGLQIMNHAHNGLDFFPSDSDINDMQQMFLKHVLLSRKGTDSCAQMFFQAYLPVAPEVLGPEVIERVELALAKIELFANNTVFCMSTISTIVRPRIQVTTSANIKYIRMANKYFTMFPPINKDTAVIFGAAVLDQICKETPIREIVLVLRKYAHVVRRPHTPTIKLYTVLTL, MSLSWRLQTGSEKAELQELNARLYDYVCRVRELERENLLLEEELRSRLSREDRWAEDQALYAEEARSLRQQLDELNWSTALAEGERDALRRELLELQREGVEAGTARSRLDAELGAQRRELEEALGARAALEALLGRLETERRDLDAAHERQVRDLRARAASLTMHFRARATSPAAPPPRLRDVHDSYALLVAESWRESVQLYEDEVRELEQALRRGQESRLQAEDEARLCAQEADALRNQALELEQLRARLEDELLRMREEYGMQAEERQRVIDSLEDEKEALTLAMADRLRDYQELLQVKTGLSLEVATYRALLEGESNPEILIWTENIENVPQEPRNTSYRYTNSVLQRKNEKNLFPRREGHHHHHH, MGSDKIHHHHHHMLKRIATSLLDIAYDEQGNADGWPVVLLHGFPYDIHAYDAVTPRLTSQGARVITPYLRGYGPTRFLAPTTLRSGQQAALGADLLALLDALQIGQAVLGGYDWGGRAACIVAALYPSRARGLVSVNGYNIQNIAAASQPADPEKEYRMWYQYYLHGERGRAGLTENRREFCRLLWSLWSPTWHFGDDTYARSAAAFDNPDFVDVVVHSYRHRFGLVDGDPQFDDIERRLSAMPPITVPAITLEGDADGVSPPGGRQANSQRFTGRHQNRVVPNAGHNLPQEAPGAFADAVLDINAWAARRSCACGD, HPGEVIVLIHGLMRTYVSMKPLKAYLEAQGYQVYLYKYPSARYNIQEHGVYLNQFITTILENNPAIKIHFVTHSLGGIIVREALSKLSQKQLKHVGYLIMLAPPNQGSKLAKFSIKLFPMISYFIKPLAELSSEQTSYVHRVPVPDIKMGIIAGRFDAKVPPDYARLQGQTEQVIINNTHTFIMYDSKVKKLVLSFLEKGKFE, MGSDKIHHHHHHMKEQKLSNRFCPEGMTVEEWQVGLRREFAEQNPFDVEHLDENRIWGDYLVANGRNRYRVAFRGVRSERNYCSCLDFRTNGLGTCKHIEAVTLFLQDQVPGYPWGEFDYTPEYSSIYVSYKGGRSIKMRVGREETARFEALRARFFDESGTLPPENYSFLPQICDEAKDIAASFRCYEDVFDLTQEHCRRMEWQDYLRETNPDKRVDNEYTADMPEEMRRHVYDLAYEGHGVMVGLPSDVIVREVVALADVYLRDQPGATGYVIINDPQRFILWRNAFANPALRRLPIEVMHASAFVKKVANNVPPCTFMFVEQAARLKEWRDPVSVAIKRMQIDHLYMNLETIEDLTPVQFSSVVQHIDPFILGPFYRFIRDYRPIFPLRNDGSNLPDDVRDFMFLYTSDSIREMNEMLPPIRTAEILLHGTDAEEEIDKLLRHLNRVLSNDTLREVFLKRISMIVGAS, MSLDKQNHKIFEILADKVSAKDNVITASGNAILLNYDVYILADKVRYDTKTKEALLEGNIKVYRGEGLLVKTDYVKLSLNEKYEIIFPFYVQDSVSGIWVSADIASGKDQKYKVKNMSTSGCSIDNPIWHVNATSGSFNMQKSHLSMWNPKIYVGDIPVLYLPYIFMSTSNKRTTGFLYPEFGTSNLDGFIYLQPFYLAPKNSWDMTFTPQIRYKRGFGLNFEARYINSKNDRFLFNARYFRNYTQYVKRYDLRNQNIYGFEFLSSSRDTLQKYFHLKSNIDNGHYIDFLYMNDLDYVRFEKVNKRITDATHMSRANYYLQTENNYYGLNIKYFLNLNKINNNRTFQSVPNLQYHKYLNSLYFRNLLYSVDYQFRNTAREIGYGYVQNALNVPVGLQFSLFKKYLSLGLWNDLQLSNVALMQSKNSFVPTIPNESREFGNFVSSNFSMYVNTDLAREYNKLFHTIQLEAIFNIPYYTFKNGLFSQNMYALSAQALNSYTSPLLRDYDYQGRLYDSVWNPSSILPSNASNKTVDLTLTQYLYGLGGQELLYFKISQLINLDDKVSPFRMPLESKIGFSPLTGLNIFGNVFYSFYQNRLEEISVNANYQRKFLSFNLSYFLKNNFSSGINSIVENEGHHHHHH
